US20240173377A1 (published 2024)

How the values were obtained:
Experiment in all cases: HLA class II competition binding assay
HLA DRB1*1101 = HLA DRB1*1101 (human)
HLA DRB1*1301 = HLA DRB1*1301 (human)
HLA DRB1*1501 = HLA DRB1*1501 (human)
HLA DRB1*0301 = HLA DRB1*0301 (human)
HLA DRB1*0101 = HLA DRB1*0101 (human)
HLA DRB1*0401 = HLA DRB1*0401 (human)
HLA DRB1*0701 = HLA DRB1*0701 (human)

Binder: EEQYNSTYTVVSVLTVLHQD [SEQ ID NO 114]
- IC50 (HLA DRB1*1101): 0.084 µM
- IC50 (HLA DRB1*1301): 1.86 µM
- IC50 (HLA DRB1*1501): 2.11 µM
- IC50 (HLA DRB1*0301): 1.57 µM
- IC50 (HLA DRB1*0101): 0.019 µM
- IC50 (HLA DRB1*0401): 1.21 µM
- IC50 (HLA DRB1*0701): 0.115 µM
